According to PMC6692557:

Biological target: HgdA (All5345), putative nucleoside-diphosphate-sugar epimerase / UDP-galactose 4-epimerase of Anabaena sp. PCC 7120 (Anabaena sp. PCC 7120)
Experiment: SEC; Superdex 75 10/300 on an ÄKTA system, Tris buffer (20 mmol/L Tris, 200 mmol/L NaCl, pH 7.5); masses calibrated with standard proteins (Gel Filtration LMW Calibration Kit)

- stoichiometry N: 2
Substance: HgdA (All5345), putative nucleoside-diphosphate-sugar epimerase / UDP-galactose 4-epimerase of Anabaena sp. PCC 7120 (enzyme)
